In this series the test system is Escherichia coli TOP10. Kind of series: shrunken log2 fold change of peptide-encoding DNA abundance (4.5 h post-induction vs induction); higher = less antimicrobial activity (less host growth inhibition). Particulars: time post-induction: 4.5 h; library: site-saturation at positions 5, 18, 19, 20.
With RRIRARPPRLPRPRPRPTEPPRP, the “shrunken log2 fold change” value worked out at 0.797.

With RRIRGRPPRLPRPRPRPFSGPRP, the “shrunken log2 fold change” value is -0.325.

Consider RRIRLRPPRLPRPRPRPVGVPRP, for which the “shrunken log2 fold change” value was -0.0387.

For RRIRKRPPRLPRPRPRPGHAPRP, the “shrunken log2 fold change” value was found to be 0.667.

Regarding RRIRLRPPRLPRPRPRPPHIPRP, the “shrunken log2 fold change” value was 0.0882.

For the sequence RRIRFRPPRLPRPRPRPHRDPRP, the “shrunken log2 fold change” value was -0.36.

Regarding RRIRKRPPRLPRPRPRPTQCPRP, the “shrunken log2 fold change” value worked out at 0.567.

Take RRIRWRPPRLPRPRPRPHMGPRP: the “shrunken log2 fold change” value is 0.0771.

With RRIRIRPPRLPRPRPRPRHEPRP, the “shrunken log2 fold change” value came to 0.0234.

For the sequence RRIRWRPPRLPRPRPRPGWTPRP, the “shrunken log2 fold change” value turned out to be 0.253.

Turning to RRIRQRPPRLPRPRPRPYHTPRP, the “shrunken log2 fold change” value is -0.00448.

For RRIRSRPPRLPRPRPRPNRCPRP, the “shrunken log2 fold change” value came out at 0.173.

Take RRIRFRPPRLPRPRPRPGDVPRP: the “shrunken log2 fold change” value was -0.014.

For the sequence RRIRPRPPRLPRPRPRPGPKPRP, the “shrunken log2 fold change” value was found to be 0.394.

For RRIRSRPPRLPRPRPRPDKCPRP, the “shrunken log2 fold change” value was -0.173.

With RRIRERPPRLPRPRPRPMVEPRP, the “shrunken log2 fold change” value is -0.0932.

As to RRIRWRPPRLPRPRPRPWLAPRP, the “shrunken log2 fold change” value is -0.168.

In the case of RRIRQRPPRLPRPRPRPWVVPRP, the “shrunken log2 fold change” value worked out at 0.0305.

For the sequence RRIRWRPPRLPRPRPRPSNEPRP, the “shrunken log2 fold change” value was found to be 0.0555.

RRIRNRPPRLPRPRPRPDSEPRP: the “shrunken log2 fold change” value was -0.0671.

With RRIRPRPPRLPRPRPRPLSNPRP, the “shrunken log2 fold change” value was -0.1.

RRIRWRPPRLPRPRPRPMLWPRP: the “shrunken log2 fold change” value worked out at 0.0929.

RRIRQRPPRLPRPRPRPKFWPRP: the “shrunken log2 fold change” value was 0.104.

Consider RRIRWRPPRLPRPRPRPGIGPRP, for which the “shrunken log2 fold change” value was 0.433.

With RRIRSRPPRLPRPRPRPGNPPRP, the “shrunken log2 fold change” value was 0.0113.

Consider RRIRYRPPRLPRPRPRPRRLPRP, for which the “shrunken log2 fold change” value is -0.385.

RRIRGRPPRLPRPRPRPMSIPRP: the “shrunken log2 fold change” value is 0.0628.

As to RRIRWRPPRLPRPRPRPEDWPRP, the “shrunken log2 fold change” value was 0.947.

For the sequence RRIRERPPRLPRPRPRPDATPRP, the “shrunken log2 fold change” value was 0.645.

For the sequence RRIRTRPPRLPRPRPRPAPIPRP, the “shrunken log2 fold change” value worked out at 0.0613.

As for RRIRTRPPRLPRPRPRPVSLPRP, the “shrunken log2 fold change” value is -0.298.

With RRIRQRPPRLPRPRPRPVMIPRP, the “shrunken log2 fold change” value was -0.286.

As for RRIRGRPPRLPRPRPRPNELPRP, the “shrunken log2 fold change” value stood at 0.552.

Turning to RRIRDRPPRLPRPRPRPRIIPRP, the “shrunken log2 fold change” value was -0.00686.

Consider RRIRGRPPRLPRPRPRPSECPRP, for which the “shrunken log2 fold change” value turned out to be 0.519.

As for RRIRYRPPRLPRPRPRPGMLPRP, the “shrunken log2 fold change” value is -0.139.

Turning to RRIRSRPPRLPRPRPRPKLVPRP, the “shrunken log2 fold change” value was -0.0443.

RRIRYRPPRLPRPRPRPAQPPRP: the “shrunken log2 fold change” value was -0.0284.

RRIRMRPPRLPRPRPRPGAYPRP: the “shrunken log2 fold change” value worked out at 0.0666.

Take RRIRNRPPRLPRPRPRPNLHPRP: the “shrunken log2 fold change” value was -0.728.

Take RRIRPRPPRLPRPRPRPGNIPRP: the “shrunken log2 fold change” value was -0.000778.

For RRIRIRPPRLPRPRPRPCRHPRP, the “shrunken log2 fold change” value is -0.159.

As to RRIRSRPPRLPRPRPRPEHTPRP, the “shrunken log2 fold change” value came to 0.262.

For RRIRDRPPRLPRPRPRPPMHPRP, the “shrunken log2 fold change” value turned out to be 0.319.

Turning to RRIRWRPPRLPRPRPRPDRAPRP, the “shrunken log2 fold change” value is 0.487.

Consider RRIRLRPPRLPRPRPRPVNQPRP, for which the “shrunken log2 fold change” value was -0.138.

As to RRIRMRPPRLPRPRPRPEHCPRP, the “shrunken log2 fold change” value came to 0.429.

For the sequence RRIRWRPPRLPRPRPRPPSKPRP, the “shrunken log2 fold change” value is 0.104.

In the case of RRIRRRPPRLPRPRPRPSCTPRP, the “shrunken log2 fold change” value is 0.0387.

On to RRIRARPPRLPRPRPRPWSPPRP, for which the “shrunken log2 fold change” value was 0.138.

Take RRIRTRPPRLPRPRPRPERCPRP: the “shrunken log2 fold change” value is 0.0057.

With RRIRVRPPRLPRPRPRPHIIPRP, the “shrunken log2 fold change” value was -0.204.

With RRIRKRPPRLPRPRPRPQWCPRP, the “shrunken log2 fold change” value turned out to be 0.149.

RRIRARPPRLPRPRPRPVTKPRP: the “shrunken log2 fold change” value turned out to be 0.128.

For RRIRRRPPRLPRPRPRPPCCPRP, the “shrunken log2 fold change” value came to 0.623.

Turning to RRIRRRPPRLPRPRPRPAPNPRP, the “shrunken log2 fold change” value amounted to 0.976.

Turning to RRIRRRPPRLPRPRPRPFLWPRP, the “shrunken log2 fold change” value came out at 0.173.

As to RRIRHRPPRLPRPRPRPMDSPRP, the “shrunken log2 fold change” value was -0.00141.

Turning to RRIRVRPPRLPRPRPRPAEKPRP, the “shrunken log2 fold change” value turned out to be 0.00294.

For RRIRLRPPRLPRPRPRPYDHPRP, the “shrunken log2 fold change” value is -0.165.

For the sequence RRIRIRPPRLPRPRPRPFCAPRP, the “shrunken log2 fold change” value is -0.088.

In the case of RRIRCRPPRLPRPRPRPCKYPRP, the “shrunken log2 fold change” value was -0.227.

Take RRIRFRPPRLPRPRPRPWFIPRP: the “shrunken log2 fold change” value was -0.175.

For the sequence RRIRERPPRLPRPRPRPANPPRP, the “shrunken log2 fold change” value was -0.0315.

As for RRIRRRPPRLPRPRPRPCISPRP, the “shrunken log2 fold change” value is -0.0399.

Take RRIRDRPPRLPRPRPRPFNFPRP: the “shrunken log2 fold change” value was -0.703.

Turning to RRIRGRPPRLPRPRPRPQKIPRP, the “shrunken log2 fold change” value was determined as 0.274.

Turning to RRIRIRPPRLPRPRPRPCRMPRP, the “shrunken log2 fold change” value was -0.186.

For the sequence RRIRTRPPRLPRPRPRPGGMPRP, the “shrunken log2 fold change” value is -0.117.

Take RRIRLRPPRLPRPRPRPNWPPRP: the “shrunken log2 fold change” value amounted to 0.379.

With RRIRTRPPRLPRPRPRPFEFPRP, the “shrunken log2 fold change” value is -0.508.

For RRIRTRPPRLPRPRPRPRSYPRP, the “shrunken log2 fold change” value is 0.0838.

In the case of RRIRFRPPRLPRPRPRPDSWPRP, the “shrunken log2 fold change” value was -0.161.

As for RRIRTRPPRLPRPRPRPQFSPRP, the “shrunken log2 fold change” value was -0.823.

As for RRIRQRPPRLPRPRPRPDPKPRP, the “shrunken log2 fold change” value was 0.0129.

As for RRIRFRPPRLPRPRPRPFGRPRP, the “shrunken log2 fold change” value was -0.199.

On to RRIRERPPRLPRPRPRPAKTPRP, for which the “shrunken log2 fold change” value was -0.244.

On to RRIRARPPRLPRPRPRPDEYPRP, for which the “shrunken log2 fold change” value is -0.0116.

Turning to RRIRNRPPRLPRPRPRPQGRPRP, the “shrunken log2 fold change” value is -0.0865.

In the case of RRIRGRPPRLPRPRPRPDQPPRP, the “shrunken log2 fold change” value amounted to 1.01.

As to RRIRKRPPRLPRPRPRPVSPPRP, the “shrunken log2 fold change” value worked out at 0.286.

With RRIRIRPPRLPRPRPRPEPAPRP, the “shrunken log2 fold change” value turned out to be 0.326.

As for RRIRIRPPRLPRPRPRPVRMPRP, the “shrunken log2 fold change” value was determined as 0.109.

On to RRIRYRPPRLPRPRPRPADMPRP, for which the “shrunken log2 fold change” value is -0.382.

Consider RRIRLRPPRLPRPRPRPVKGPRP, for which the “shrunken log2 fold change” value was -0.00152.

Turning to RRIRVRPPRLPRPRPRPPQWPRP, the “shrunken log2 fold change” value was determined as 0.353.

For the sequence RRIRTRPPRLPRPRPRPPDSPRP, the “shrunken log2 fold change” value was -0.0615.

With RRIRVRPPRLPRPRPRPGKYPRP, the “shrunken log2 fold change” value is -0.493.

In the case of RRIRRRPPRLPRPRPRPCWAPRP, the “shrunken log2 fold change” value is 0.153.

As for RRIRIRPPRLPRPRPRPPHPPRP, the “shrunken log2 fold change” value came out at 0.154.

With RRIRNRPPRLPRPRPRPNFTPRP, the “shrunken log2 fold change” value was -0.197.

For the sequence RRIRKRPPRLPRPRPRPKDSPRP, the “shrunken log2 fold change” value came to 0.218.

As for RRIRWRPPRLPRPRPRPGVLPRP, the “shrunken log2 fold change” value came out at 0.0321.

As to RRIRTRPPRLPRPRPRPNYPPRP, the “shrunken log2 fold change” value is -0.0192.

Take RRIRSRPPRLPRPRPRPVHDPRP: the “shrunken log2 fold change” value was -0.0657.

As for RRIRTRPPRLPRPRPRPMDAPRP, the “shrunken log2 fold change” value worked out at 0.0575.

For the sequence RRIRTRPPRLPRPRPRPRGTPRP, the “shrunken log2 fold change” value was found to be 0.197.

On to RRIRVRPPRLPRPRPRPEDFPRP, for which the “shrunken log2 fold change” value stood at 0.0252.

Turning to RRIRVRPPRLPRPRPRPWPNPRP, the “shrunken log2 fold change” value was determined as 0.179.

As for RRIRQRPPRLPRPRPRPGMVPRP, the “shrunken log2 fold change” value stood at 0.0259.

For RRIRKRPPRLPRPRPRPEEIPRP, the “shrunken log2 fold change” value was found to be 0.00253.

Take RRIRQRPPRLPRPRPRPYQNPRP: the “shrunken log2 fold change” value is -0.816.

Take RRIRCRPPRLPRPRPRPFPMPRP: the “shrunken log2 fold change” value was -0.274.

For the sequence RRIRVRPPRLPRPRPRPYMTPRP, the “shrunken log2 fold change” value is -0.566.

Regarding RRIRHRPPRLPRPRPRPQFLPRP, the “shrunken log2 fold change” value is -0.653.

Regarding RRIRPRPPRLPRPRPRPQFWPRP, the “shrunken log2 fold change” value is 0.249.

For the sequence RRIRSRPPRLPRPRPRPVFMPRP, the “shrunken log2 fold change” value was -0.236.

Regarding RRIRLRPPRLPRPRPRPTIGPRP, the “shrunken log2 fold change” value was -0.192.

Consider RRIRRRPPRLPRPRPRPTNIPRP, for which the “shrunken log2 fold change” value is -0.304.

With RRIRDRPPRLPRPRPRPECMPRP, the “shrunken log2 fold change” value worked out at 1.07.

Take RRIRYRPPRLPRPRPRPSLEPRP: the “shrunken log2 fold change” value was -0.0996.

RRIRVRPPRLPRPRPRPVFAPRP: the “shrunken log2 fold change” value was 0.217.

Turning to RRIRSRPPRLPRPRPRPFYHPRP, the “shrunken log2 fold change” value is -0.28.

In the case of RRIRQRPPRLPRPRPRPAVIPRP, the “shrunken log2 fold change” value stood at 0.135.

On to RRIRPRPPRLPRPRPRPEYCPRP, for which the “shrunken log2 fold change” value was -0.146.

Take RRIRQRPPRLPRPRPRPEGLPRP: the “shrunken log2 fold change” value was -0.0407.

As for RRIRARPPRLPRPRPRPNFGPRP, the “shrunken log2 fold change” value was 0.324.

For the sequence RRIRDRPPRLPRPRPRPGRVPRP, the “shrunken log2 fold change” value came out at 0.166.

In the case of RRIRWRPPRLPRPRPRPMKVPRP, the “shrunken log2 fold change” value amounted to 0.138.

As to RRIRFRPPRLPRPRPRPWNFPRP, the “shrunken log2 fold change” value is -0.0389.

In the case of RRIRFRPPRLPRPRPRPCKLPRP, the “shrunken log2 fold change” value was -1.48.

Regarding RRIRGRPPRLPRPRPRPKYEPRP, the “shrunken log2 fold change” value turned out to be 0.56.

As for RRIRPRPPRLPRPRPRPNKEPRP, the “shrunken log2 fold change” value was -0.406.

On to RRIRVRPPRLPRPRPRPPVWPRP, for which the “shrunken log2 fold change” value worked out at 0.312.

As for RRIRSRPPRLPRPRPRPQDEPRP, the “shrunken log2 fold change” value was -0.101.

The values are drawn from the supplement of paper PMC9112550, “Optimization of the antimicrobial peptide Bac7 by deep mutational scanning” (BMC Biology, 2022).
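Also: peptides expressed intracellularly from a pBAD plasmid library in pooled LB shake-flask culture, induced with 0.3% L-arabinose, DNA abundance read by NGS, three biological replicates, DESeq2 with apeglm shrinkage.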
